Data from patent publication US20240327543A1 (SHENGHE CHINA BIOPHARMACEUTICAL, published 2024).
Where two headings read alike, the source gives them in different places.

What was measured:
Human-NKP30-His [1] = molecular target: T1, Human-NKP30-His (human, UniProt O14931 19-135, limits assumed); assay: ELISA, plate coated with Human-NKP30-His, detection with HRP goat anti-human IgG-Fc
T1 construct: Coated on the ELISA plate at 0.5 µg/mL; also called NKP30 protein; not shown: His tag
T1 sequence (looked up): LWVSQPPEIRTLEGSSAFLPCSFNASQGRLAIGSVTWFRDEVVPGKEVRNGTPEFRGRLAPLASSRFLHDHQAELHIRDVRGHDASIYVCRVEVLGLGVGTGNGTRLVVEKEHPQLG
Method: (§1) Human-NKP30-His was diluted to 0.5 μg/mL with PBS buffer at pH 7.4, added into the 96-well ELISA plate at 100 μL per well, coated overnight at 4° C., and blocked with 1% BSA blocking solution for 1 hour. The plate was washed 3 times with PBST, and the constructed antibodies were diluted to 10 μg/mL with 0.5% BSA sample diluent as the starting concentration, and then diluted by 3-fold gradient (11 gradients in total). A negative control (blank well and IgG1 isotype control) and a positive control were set, and the positive control was a NKP30 humanized antibody (sequence shown in SEQ ID No.32), and incubated at 37° C. for 1 h at 100 μL per well. […] The absorbance value of each well in the 96-well plate was determined by selecting the wavelength of 450 nm and the reference wavelength of 570 nm on a multifunctional enzyme marker, and the absorbance value (OD)=OD₄₅₀ₙₘ−OD₅₇₀ₙₘ. The logarithm of the concentration of the constructed antibodies were taken as the abscissa, and the measured absorbance value of each well was taken as the ordinate, and the Sigmoidaldose-response (Variable Slope) method (GraphPad Prism software, GraphPad Software, San Diego, California) was selected for nonlinear regression to obtain the binding curve of the target antibody to NKP30 protein.

Human-NKP30-His [2] = molecular target: T1, Human-NKP30-His; assay: as above; remark: listed apart in the source
Method: as §1

EC50 (read off the curve) (Human-NKP30-His [1]): ~0.03 µg/mL | EC50 (read off the curve) (Human-NKP30-His [2]): ~0.03 µg/mL
B1: NKP30 humanized antibody (SEQ ID No.32) (antibody, human IgG4 S228P, V domains shown)
VH: EVQLVESGGGLVQPGGSLRLSCAASGITFSRSVMGWFRQAPGKLRELVAGITSDDNTDYADSVKGRFTISRDNSKNTLYLQMNSLRAEDTAVYYCNILPDSRLGWGQGTLVTVSS
notes: It was detected with anti-human IgG-Fc; also called positive control; NKP30 monoclonal antibody
